Test results from patent US10654896B2, “FoxP3-binding peptides and uses thereof” (FUNDACIÓN PARA LA INVESTIGACIÓN MÉDICA APLICADA, priority 2016, dated 2020).
Where a SMILES comes first, the peptide text is derived from it. Where no end group is shown, it is not given here. [ ]: non-standard residue; d: D form.

Tested on: not listed separately
Assay: Mouse liver microsomal stability
Assay type: in vitro ADME
Conditions: mouse liver microsomes, 20 min; read-out: % Remaining after 20 min
Description: (§1) The data collected were analyzed to calculate a half-life (t1/2, min) for tested peptides at a final concentration of 1 μM. Briefly, 5 μL of stock solution of tested peptide (10 mM) were diluted in 495 μL of 1:1 Methanol/Water (final concentration of 100 μM, 50% MeOH). Then, 50 μL of this intermediate solution were diluted in 450 μL of 100 mM potassium phosphate buffer to a concentration of 10 μM (working solution, 5% MeOH). The NADPH regenerating system contains β-Nicotinamide adenine dinucleotide phosphate (Sigma, Cat. # N0505), Isocitric acid (Sigma, Cat. #11252) and Isocitric dehydrogenase (Sigma, Cat. #12002) at a final concentration of 1 unit/mL at incubation.
(§2) Human liver microsomes were obtained from BD Gentest (Cat. #452117) and mouse liver microsomes from Xenotech (Cat. # M1000), to a final concentration of 0.7 mg protein/mL. A volume of 10 μL of peptide solution and 80 μL of microsome solution were added to a 96-well plate and incubated for 10 min at 37° C. The reaction was started by the addition of 10 μL of NADPH regenerating system and stopped by the addition of 300 μL of stop solution (ACN at 4° C., including 100 ng/mL Tolbutamide and 100 ng/mL of Labetalol as internal standard) at different incubation times (0, 5, 10, 20, 30 and 60 min). Concentrations of test compound were quantified by LC-MS/MS methodologies (Shimadzu LC 20-AD/API4000) using peak area ratio of analyte/internal standard and the percent loss of parent compound was calculated under each time point to determine the half-life.

| Molecule | remaining at 20 min, 1 μM [%] |
| --- | --- |
| CSCC[C@@H]1NC(=O)[C@H](C)NC(=O)[C@H](Cc2ccccc2)NC(=O)[C@H](Cc2ccccc2)NC(=O)[C@@H]2CCCN2C(=O)[C@H](Cc2c[nH]c3ccccc23)NC(=O)[C@H](CCSC)NC(=O)[C@H](CCCCN)NC(=O)[C@H](CCCNC(=N)N)NC(=O)[C@H](Cc2ccccc2)NC(=O)[C@H](C)NC(=O)[C@H](CCC(N)=O)NC(=O)[C@H](Cc2ccccc2)NC(=O)[C@@H](C)NC(=O)[C@H](CCCNC(=N)N)NCCCNC1=O [compound 52] | 98.9 |

Same assay, conditions: mouse liver microsomes, 60 min; read-out: % Remaining after 60 min

| Molecule | remaining at 1 h, 1 μM [%] |
| --- | --- |
| CSCC[C@@H]1NC(=O)[C@H](C)NC(=O)[C@H](Cc2ccccc2)NC(=O)[C@H](Cc2ccccc2)NC(=O)[C@@H]2CCCN2C(=O)[C@H](Cc2c[nH]c3ccccc23)NC(=O)[C@H](CCSC)NC(=O)[C@H](CCCCN)NC(=O)[C@H](CCCNC(=N)N)NC(=O)[C@H](Cc2ccccc2)NC(=O)[C@H](C)NC(=O)[C@H](CCC(N)=O)NC(=O)[C@H](Cc2ccccc2)NC(=O)[C@@H](C)NC(=O)[C@H](CCCNC(=N)N)NCCCNC1=O [compound 52] | 48 |

Same assay, conditions: mouse liver microsomes, peptide 1 μM

| Molecule | half-life [min] |
| --- | --- |
| CSCC[C@@H]1NC(=O)[C@H](C)NC(=O)[C@H](Cc2ccccc2)NC(=O)[C@H](Cc2ccccc2)NC(=O)[C@@H]2CCCN2C(=O)[C@H](Cc2c[nH]c3ccccc23)NC(=O)[C@H](CCSC)NC(=O)[C@H](CCCCN)NC(=O)[C@H](CCCNC(=N)N)NC(=O)[C@H](Cc2ccccc2)NC(=O)[C@H](C)NC(=O)[C@H](CCC(N)=O)NC(=O)[C@H](Cc2ccccc2)NC(=O)[C@@H](C)NC(=O)[C@H](CCCNC(=N)N)NCCCNC1=O [compound 52] | 46.9 |

Tested on: not listed separately
Assay: Human liver microsomal stability
Assay type: in vitro ADME
Conditions: human liver microsomes, 20 min; read-out: % Remaining after 20 min
Description: as §1, §2

| Molecule | remaining at 20 min, 1 μM [%] |
| --- | --- |
| CSCC[C@@H]1NC(=O)[C@H](C)NC(=O)[C@H](Cc2ccccc2)NC(=O)[C@H](Cc2ccccc2)NC(=O)[C@@H]2CCCN2C(=O)[C@H](Cc2c[nH]c3ccccc23)NC(=O)[C@H](CCSC)NC(=O)[C@H](CCCCN)NC(=O)[C@H](CCCNC(=N)N)NC(=O)[C@H](Cc2ccccc2)NC(=O)[C@H](C)NC(=O)[C@H](CCC(N)=O)NC(=O)[C@H](Cc2ccccc2)NC(=O)[C@@H](C)NC(=O)[C@H](CCCNC(=N)N)NCCCNC1=O [compound 52] | 76.9 |

Same assay, conditions: human liver microsomes, 60 min; read-out: % Remaining after 60 min

| Molecule | remaining at 1 h, 1 μM [%] |
| --- | --- |
| CSCC[C@@H]1NC(=O)[C@H](C)NC(=O)[C@H](Cc2ccccc2)NC(=O)[C@H](Cc2ccccc2)NC(=O)[C@@H]2CCCN2C(=O)[C@H](Cc2c[nH]c3ccccc23)NC(=O)[C@H](CCSC)NC(=O)[C@H](CCCCN)NC(=O)[C@H](CCCNC(=N)N)NC(=O)[C@H](Cc2ccccc2)NC(=O)[C@H](C)NC(=O)[C@H](CCC(N)=O)NC(=O)[C@H](Cc2ccccc2)NC(=O)[C@@H](C)NC(=O)[C@H](CCCNC(=N)N)NCCCNC1=O [compound 52] | 40.1 |

Same assay, conditions: human liver microsomes, peptide 1 μM; read-out: t1/2

| Molecule | half-life [min] |
| --- | --- |
| CSCC[C@@H]1NC(=O)[C@H](C)NC(=O)[C@H](Cc2ccccc2)NC(=O)[C@H](Cc2ccccc2)NC(=O)[C@@H]2CCCN2C(=O)[C@H](Cc2c[nH]c3ccccc23)NC(=O)[C@H](CCSC)NC(=O)[C@H](CCCCN)NC(=O)[C@H](CCCNC(=N)N)NC(=O)[C@H](Cc2ccccc2)NC(=O)[C@H](C)NC(=O)[C@H](CCC(N)=O)NC(=O)[C@H](Cc2ccccc2)NC(=O)[C@@H](C)NC(=O)[C@H](CCCNC(=N)N)NCCCNC1=O [compound 52] | 41.4 |

Biological target: T1, human FOXP3 (FOXP3-6His) (Homo sapiens, UniProt Q9BZS1)
T1 construct: 6xHis (C); made in house; host or cells: E. coli BL21 (DE3)
T1 sequence (Q9BZS1 1-431): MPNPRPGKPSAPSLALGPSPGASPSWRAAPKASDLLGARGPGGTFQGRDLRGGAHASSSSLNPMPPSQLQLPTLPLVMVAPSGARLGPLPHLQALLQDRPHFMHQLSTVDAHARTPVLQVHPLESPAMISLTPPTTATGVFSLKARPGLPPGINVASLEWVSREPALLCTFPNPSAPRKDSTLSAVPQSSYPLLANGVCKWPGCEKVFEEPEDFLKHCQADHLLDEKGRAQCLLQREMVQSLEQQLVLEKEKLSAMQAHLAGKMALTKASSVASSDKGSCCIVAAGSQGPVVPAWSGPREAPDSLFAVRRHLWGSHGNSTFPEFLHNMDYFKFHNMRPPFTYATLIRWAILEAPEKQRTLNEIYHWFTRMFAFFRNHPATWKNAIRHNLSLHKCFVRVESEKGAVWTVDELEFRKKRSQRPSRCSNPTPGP
Assay: Peptide binding to FOXP3 by surface plasmon resonance (SPR)
Conditions: not given
From the text: Plasmid pET20b FOXP3-His was generated to produce the human FOXP3 tagged with 6 histidines at the C terminus of the protein. Briefly, plasmid pDEST15-FOXP3 (provided by Dr. Casal, Madrid, Spain) was used as template to amplify FOXP3 by PCR using the primers Upper FOXP3 Ndel catatgcccaaccccaggc (SEQ ID NO: 55) and Lower FOXP3 […] (SEQ ID NO: 56). The resulting fragment was subcloned in pET20b at Ndel and NotI sites. pET45b His-Runx1 was obtained by PCR of activated human CD4 T cells obtained from healthy volunteers (after the signature of an informed consent) using the primers Upper Runx1 atgcgtatccccgtagatg (SEQ ID NO: 57) and Lower Runx1 […] (SEQ ID NO: 58) and the fragment was cloned in pcDNA3.1. Then, pET45b and pcDNA3.1-Runx1 were digested with BamHI and NotI and ligated to obtain pET45b-Runx1. Plasmids were used to transform BL21 cells (DE3; Novagen, Schwalbach, Germany) for the expression of the recombinant protein. The transformed BL21 cells were grown in LB medium at 37° C. (1 liter of final culture medium) (with ampicilin 0.1 mg/ml). Once the OD of the culture was between 0.5 and 1.0, IPTG (0.4 mM, final concentration) was added. Bacteria were then cultured overnight in agitation and centrifuged for 10 min at 8000 rpm. Cell pellet was then resuspended in 4 ml Tris-HCl 0.1 M and frozen at −80° C. Cell pellet was then thawed and incubated with lisozyme (25 KU) and a protease inhibitor cocktail for 15 min at 30° C. before cell lysis induced with a French-press. The resultant pool was then centrifuged during 20 min at 11.000 rpm). The recombinant protein was purified from the soluble fraction of French-press cell extracts by affinity chromatography (Histrap, Pharmacia) following manufacturer's instructions and using an FPLC platform (AKTA, Pharmacia). Plasmid pDEST15-FOXP3 encoding the fusion protein GST-FOXP3 (GST fused to the isoform A from human FOXP3 gene), was transformed into BL21 cells for the expression of the recombinant protein. GST-FOXP3 protein was purified from the soluble fraction of cell extracts obtained, as described above, by affinity chromatography (GSTrap; Amersham, Piscataway, N.J.) using a fast protein liquid chromatography platform (AKTA; Amersham) following manufacturer's instructions. The eluted proteins were desalted using Hitrap desalting columns (Pharmacia) and analyzed by SDS-PAGE using Coomassie blue (Bio-Safe Coomassie reagent; Bio-Rad, Hercules, Calif.) and by Western blot.
Screening of peptide binding to FOXP3 was performed by surface plasmon resonance (SPR) using ProteOn XPR36 (Bio-Rad, Hercules Calif., USA) optical biosensor. Recombinant protein FOXP3-6His was produced and purified from E. coli as disclosed in previous section and was immobilized covalently onto a GLM sensor chip (176-5012, Bio-Rad) using sulfo-NHS and EDC (Bio-Rad) coupling reagents and the manufacturer's instructions. After protein immobilization, chip surface was treated with ethanolamine to deactivate the excess of reactive esters.
Individual solutions of the peptides to be tested (1-20 μM) were injected by triplicate in running buffer (Phosphate buffered saline, 0.005% (v/v) Tween 20, pH 7.4) at a flow of 30 μl/min. The interspot signal (obtained in the chip surface not immobilized with protein) was used as reference. The results are summarized in Table 6 below as the ratio Peptide of the invention/p60.

| Molecule | increase in the binding to FoxP3 with respect to p60 (SEQ ID NO: 1) |
| --- | --- |
| RDFQSFRKMWPFFAM (cyclo(RDFQSFRKMWPFFAM); also: R1 and R2 form a linker birradical which is -C(=O)-) [SEQ ID NO: 49, head-to-tail cyclic peptide] | about 500% |
| RAFQAFRKMWPFFAM [SEQ ID NO: 42] (H-RAFQAFRKMWPFFAM-OH) | about 400% |

Same assay, conditions: peptides 1-20 μM; ratio to p60 (SEQ ID NO: 1)

| Binding to Foxp3 Ratio binding Peptide/p60 (fold change) | Molecule |
| --- | --- |
| 1.1 | 38 (RDFQSFRKMWAFFA[dM]-NH2; not fully specified (N-terminus)) [compound 38] |
| 4.1 | 37 (RDFQSFRKMWKFFAM) [compound 37] |
| 3.3 | 6 (R[dA]FQSFRKMWPFFAM) [compound 6] |
| 4.1 | 42 (H-RAFQAFRKMWPFFAM-OH) [compound 42] |
| 1.3 | 35 (RDFQSFRKMWYFFAM) [compound 35] |
| 3.3 | 39 (RDFQ[dA]FRKMWPFFAM-NH2; not fully specified (N-terminus)) [compound 39] |
| 5.0 | 49 (cyclo(RDFQSFRKMWPFFAM); also: R1 and R2 form a linker birradical which is -C(=O)-) [compound 49] |
| 3.0 | 44 (RAFQSFRKMWAFFAM-NH2; not fully specified (N-terminus)) [compound 44] |
| 4.9 | 43 (R[dA]FQ[dA]FRKMWPFFAM-NH2; not fully specified (N-terminus)) [compound 43] |
| 2.2 | 40 (RDFQSFRKMW[dA]FFAM-NH2; not fully specified (N-terminus)) [compound 40] |
| 1.3 | 33 (RDFQSFRKMWVFFAM) [compound 33] |

The remaining lines, values behind:

| Molecule | Binding to Foxp3 Ratio binding Peptide/p60 (fold change) |
| --- | --- |
| 22 (RDFQWFRKMWPFFAM) [compound 22] | 2.4 |
| 11 (RNFQSFRKMWPFFAM) [compound 11] | 1.4 |
| 17 (RDYQSFRKMWPFFAM) [compound 17] | 3.3 |
| 12 (RKFQSFRKMWPFFAM) [compound 12] | 2.2 |
| 29 (RDFQSFRRMWPFFAM) [compound 29] | 1.4 |
| 20 (RDFQRFRKMWPFFAM) [compound 20] | 3.7 |
| 16 (RDWQSFRKMWPFFAM) [compound 16] | 3.7 |
| 8 (RYFQSFRKMWPFFAM) [compound 8] | 1.4 |
| CSCC[C@H](NC(=O)[C@H](C)NC(=O)[C@H](Cc1ccccc1)NC(=O)[C@H](Cc1ccccc1)NC(=O)[C@@H]1CCCN1C(=O)[C@H](Cc1c[nH]c2ccccc12)NC(=O)[C@H](CCSC)NC(=O)[C@H](CCCCN)NC(=O)[C@H](CCCNC(=N)N)NC(=O)[C@H](Cc1ccccc1)NC(=O)[C@H](CO)NC(=O)[C@H](CCC(N)=O)NC(=O)[C@H](Cc1ccccc1)NC(=O)[C@@H](CC(=O)O)NC(=O)[C@H](CCCNC(=N)N)NC(=O)CNC(C)=O)C(N)=O [compound 4] (Ac-GR[dD]FQSFRKMWPFFAM-NH2; C-terminus assumed) | 4.2 |
| Ac-GRAFQSFRKMWPFFAM-NH2 (C-terminus assumed) [compound 13] | 3.2 |
| 32 (RDFQSFRKMWNFFAM) [compound 32] | 1.4 |
| 18 (RDLQSFRKMWPFFAM) [compound 18] | 1.9 |
| 21 (RDFQNFRKMWPFFAM) [compound 21] | 3.2 |
| 7 (RSFQSFRKMWPFFAM) [compound 7] | 1.4 |
| 28 (RDFQSFRHMWPFFAM) [compound 28] | 2.6 |
| 25 (RDFQKFRKMWPFFAM) [compound 25] | 4.0 |
| 31 (RDFQSFRKMWRFFAM) [compound 31] | 2.8 |
| 23 (RDFQEFRKMWPFFAM) [compound 23] | 1.3 |
| 24 (RDFQYFRKMWPFFAM) [compound 24] | 4.6 |
